Reference: the Immune Epitope Database (IEDB)

target: HLA-A*02:01; assay: IEDB peptide-MHC binding, purified MHC/competitive/radioactivity; filed as Kd, often an IC50 or EC50 that approximates it; ≥ and ≤ were set here for values at or beyond the usual limits of such assays; conditions: source organism: Homo sapiens

Row | Sequence | Kd [nM]
1 | CLVGAPFASLC | 6250
2 | GLCFFGVAL | 4170
3 | RMYGVLPWI | 29
4 | SLLTFMIAA | 9.4
5 | FLYGALLLA | 2.6
6 | VLPWIAFPGKV | 1280
7 | ALTVVWLL | 7140
8 | ALTGTEKL | ≥ 50000
9 | WLLVFACSA | ≥ 50000
10 | LVSLLTFMI | 1920
11 | FLYGALLL | 143
12 | LVFACSAVPV | 1610
13 | WLGHPDKFVGI | ≥ 25000
14 | YALTVVWLL | 119
15 | TLSKIFKL | 2380
16 | IAATYNFAV | 93
17 | WLGHPDKFV | ≥ 50000
18 | VIHAFQYVI | 1220
19 | FMIAATYNFAV | 10
20 | YALTVVWLLV | 658
21 | KVCGSNLLSI | 4540
22 | FACSAVPVYI | 781
23 | TLVSLLTFMI | 2630
24 | FLPRHRDTGIL | ≥ 50000

Now from value to sequence:

Row | Kd [nM] | Sequence
25 | ≥ 50000 | VVHFFKNIV
26 | 357 | SLCADARMYGV
27 | 96 | GLLECCARCLV
28 | 1850 | QMTFHLFI
29 | 1670 | QMTFHLFIA
30 | ≥ 5000 | FLPRHRDTGI
31 | 1350 | WLLVFACSAV
32 | 455 | LVLFACSAV
33 | ≥ 50000 | ALTGTEKLI
34 | 1090 | HLFIAAFV
35 | 909 | SLSRFSWGA
36 | 1000 | LLVFACSAVPV
